Substitutions are numbered along the chain they refer to.
B1: SRS* (SRS3) (structured_RNA)
RNA: GGUAUGUGUGAAUGUGCAUGAAUAUAUAUAUAUAUGCAUAUAUAUAUUUGUAUAUGUUCACACAUG

Key:
mStau2 dsRBD1-2 H36A = target: T1, mStau2 dsRBD1-2 H36A (Mus musculus, UniProt Q8CJ67 8-181, H36A); assay: SPR; Hill n 1; SPR: HBS-EP (10 mM HEPES pH 7.4, 150 mM NaCl, 3 mM EDTA, 0.005% P20); EMSA: 5 nM RNA, protein buffer (40 mM Bis-Tris pH 7, 150 mM NaCl, 2 mM DTT presumed), 4% glycerol, 30 ug/mL yeast tRNA, RT; NMR: 150 mM NaCl, 20 mM Na phosphate pH 7.0, 5 mM DTT, 298 K; settings: protein: recombinant; label: 5' 32P (EMSA); biotin (SPR); hairpin, 18 bp stem
T1 sequence: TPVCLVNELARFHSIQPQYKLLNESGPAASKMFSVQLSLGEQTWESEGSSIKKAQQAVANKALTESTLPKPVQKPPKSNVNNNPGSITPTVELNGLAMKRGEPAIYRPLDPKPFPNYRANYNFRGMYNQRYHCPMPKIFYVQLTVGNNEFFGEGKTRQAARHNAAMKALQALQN

mStau2 dsRBD1-2 E15A = target: T2, mStau2 dsRBD1-2 E15A (Mus musculus, UniProt Q8CJ67 8-181, E15A); assay: as above; settings: protein: recombinant; label: 5' 32P (EMSA); biotin (SPR); hairpin, 18 bp stem
T2 sequence: T1 sequence with E8A, A29H

mStau2 dsRBD2 = target: T3, mStau2 dsRBD2 (Mus musculus, UniProt Q8CJ67 95-181); assay: SPR; Hill n 1.1; text says 829 nM; SPR: HBS-EP (10 mM HEPES pH 7.4, 150 mM NaCl, 3 mM EDTA, 0.005% P20); EMSA: 5 nM RNA, protein buffer (40 mM Bis-Tris pH 7, 150 mM NaCl, 2 mM DTT presumed), 4% glycerol, 30 ug/mL yeast tRNA, RT; NMR: 150 mM NaCl, 20 mM Na phosphate pH 7.0, 5 mM DTT, 298 K; settings: protein: recombinant; label: 5' 32P (EMSA); biotin (SPR); imperfect hairpin, 26 bp with two bulges
T3 sequence: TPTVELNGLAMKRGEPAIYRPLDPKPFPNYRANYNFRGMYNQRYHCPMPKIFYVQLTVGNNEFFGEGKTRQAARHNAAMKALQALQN

mStau2 dsRBD1-2 F40A = target: T4, mStau2 dsRBD1-2 F40A (Mus musculus, UniProt Q8CJ67 8-181, F40A); assay: SPR; Hill n 1; SPR: HBS-EP (10 mM HEPES pH 7.4, 150 mM NaCl, 3 mM EDTA, 0.005% P20); EMSA: 5 nM RNA, protein buffer (40 mM Bis-Tris pH 7, 150 mM NaCl, 2 mM DTT presumed), 4% glycerol, 30 ug/mL yeast tRNA, RT; NMR: 150 mM NaCl, 20 mM Na phosphate pH 7.0, 5 mM DTT, 298 K; settings: protein: recombinant; label: 5' 32P (EMSA); biotin (SPR); imperfect hairpin, 26 bp with two bulges
T4 sequence: T1 sequence with A29H, F33A

mStau2 dsRBD1 = target: T5, mStau2 dsRBD1 (Mus musculus, UniProt Q8CJ67 8-75); assay: SPR; up to 1 uM; SPR: HBS-EP (10 mM HEPES pH 7.4, 150 mM NaCl, 3 mM EDTA, 0.005% P20); EMSA: 5 nM RNA, protein buffer (40 mM Bis-Tris pH 7, 150 mM NaCl, 2 mM DTT presumed), 4% glycerol, 30 ug/mL yeast tRNA, RT; NMR: 150 mM NaCl, 20 mM Na phosphate pH 7.0, 5 mM DTT, 298 K; settings: protein: recombinant; label: 5' 32P (EMSA); biotin (SPR); imperfect hairpin, 26 bp with two bulges
T5 sequence: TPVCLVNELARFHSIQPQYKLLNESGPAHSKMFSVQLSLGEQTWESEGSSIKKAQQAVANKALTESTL

Binder | Kd (mStau2 dsRBD1-2 H36A) | Kd (mStau2 dsRBD1-2 E15A) | Kd (mStau2 dsRBD2) | Kd (mStau2 dsRBD1-2 F40A) | binding result (mStau2 dsRBD1)
GGUAUAUACAUGCACAUGCAAUUUGUGUAUGUGUAUGUAUAUA (structured_RNA) [SRS2+5] | 701 ± 386 nM | 132 ± 31 nM |  |  | 
B1 |  |  | 828 ± 29 nM | 769 ± 427 nM | no binding
